Measurements: patent US20250019429A1 (Janssen / Centocor, published 2025)
Each block holds one binder with its values, some of them ahead of it.

Tests used:
[1] = molecular target: T1, recombinant human TNFα (human, UniProt P01375 77-233); assay: competition: mAb in hybridoma supernatant preincubated with 125I-TNFα (5 ng/ml), then 125I-TNFα bound to plate-coated p55-sf2 counted as cpm
T1 construct: also called huTNFα; tumor necrosis factor alpha
Method: Although eight TNV mAb samples were tested in these experiments, for simplicity three of the mAbs that were shown by DNA sequence analyses to be identical to one of the other TNV mAbs (see Section 5.2.2) are not shown here. Each sample was tested in duplicate. The results shown are representative of two independent experiments.
(§1) Assay for Inhibition of TNF Binding to Receptor. […] 50:1 of p55-sf2 at 0.5: g/ml in PBS was added to Optiplates to coat the wells during a one-hour incubation at 37° C. Serial dilutions of the eight TNV cell supernatants were prepared in 96-well round-bottom plates using PBS/0.1% BSA as diluent. […] The mixture was preincubated for one hour at RT. […] After 2 hrs at RT, Optiplates were washed three times with PBS-Tween. […] of Microscint-20 was added and the cpm bound determined using the TopCount gamma counter.

[2] = molecular target: T1, recombinant human TNFα; assay: inhibition of 125I-TNFα binding to plate-coated p55-sf2 by hybridoma supernatant
Method: as §1

[3] = molecular target: T1, recombinant human TNFα; assay: cell-based or functional assay

IC50 (read off the curve) [1]: ~4 ng/mL | fold better at blocking TNF binding, against TNV118 and TNV14 [2]: ~4 fold | neutralizing TNFα bioactivity [3]: 4 fold (against TNV14)
B1: TNV148 (antibody, human IgG1, kappa, V domains shown)
VH: QVQLVESGGGVVQPGRSLRLSCAASGFIFSSYAMHWVRQAPGNGLEWVAFMSYDGSNKKYADSVKGRFTISRDNPKNTLYLQMNSLRAEDTAVYYCARDRGIAAGGNYYYYGMDVWGQGTTVTVSS
VL: EIVLTQSPATLSLSPGERATLSCRASQSVYSYLAWYQQKPGQAPRLLIYDASNRATGIPARFSGSGSGTDFTLTISSLEPEDFAVYYCQQRSNWPPFTFGPGTKVDIKR
notes: Hybridoma-derived fully human IgG1 kappa; also called GenTNV148.26.12; C420A

fold better at blocking TNF binding, against TNV118 and TNV14 [2]: ~4 fold
B2: TNV86 (antibody, human IgG1, kappa, V domains shown)
VH: B1 VH
VL: B1 VL
notes: also called GenTNV86.14.34; C417A
